Results taken from patent publication US20220267421A1 (INVOX PHARMA, published 2022).

What was measured:
Experiment in all cases: ELISA, antigen coated at 1 ug/ml
[1] = target: T1, human E-Cadherin (R&D systems, 8505-EC) (human, UniProt P12830 155-707)
T1 sequence (looked up): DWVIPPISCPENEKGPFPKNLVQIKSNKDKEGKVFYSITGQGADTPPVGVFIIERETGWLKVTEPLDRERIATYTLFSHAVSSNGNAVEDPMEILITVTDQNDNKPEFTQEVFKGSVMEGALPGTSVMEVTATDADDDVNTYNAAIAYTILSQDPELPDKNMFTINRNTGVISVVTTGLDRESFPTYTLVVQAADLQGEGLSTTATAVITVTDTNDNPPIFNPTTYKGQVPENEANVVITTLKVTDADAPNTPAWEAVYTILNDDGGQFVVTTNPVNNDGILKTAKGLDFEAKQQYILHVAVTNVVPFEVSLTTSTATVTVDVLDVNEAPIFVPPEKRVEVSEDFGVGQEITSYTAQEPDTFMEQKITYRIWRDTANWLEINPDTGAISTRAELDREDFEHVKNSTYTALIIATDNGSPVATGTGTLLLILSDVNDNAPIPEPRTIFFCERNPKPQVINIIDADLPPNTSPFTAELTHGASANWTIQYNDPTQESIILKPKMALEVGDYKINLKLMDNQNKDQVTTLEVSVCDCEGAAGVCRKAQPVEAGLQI
Description: (§1) A similar protocol was used as described in section 1.2.1 in which maxisorp plates were coated with 1 μg/ml of recombinant human MSLN-His-Avi, human CEACAM-5-His-Fc (Sino Biological, 1077-H03H), human E-Cadherin (R&D systems, 8505-EC), human Thrombomodulin (Peprotech, 100-58) or human EpCAM-hFc (in-house production). Binding of the anti-MSLN mAbs, tested at a concentration range of 0.02 to 1000 nM (3-fold dilutions) was detected using anti-human Fab-HRP (Sigma, A0293). Positive controls for the respective molecules included human EpCAM antibody (clone 2G8 from patent no. U.S. Pat. No. 8,236,308 B2) CEACAM-5 antibody (clone hMN15 from patent no. U.S. Pat. No. 8,771,690 B2), human E-Cadherin antibody, mouse IgG2b clone 180215 (R&D systems, MAB1838), human Thrombomodulin antibody, mouse IgG1, clone 501733 (R&D systems, MAB3947). The latter two were detected using goat anti mouse Fc-HRP (Sigma, A9309) as secondary mAb.

[2] = target: human Thrombomodulin (Peprotech, 100-58) (human, UniProt P07204 19-515)
Description: as §1

[3] = target: T2, human CEACAM-5-His-Fc (Sino Biological, 1077-H03H) (human, UniProt P06731 35-685)
T2 construct: not shown: His tag and Fc
T2 sequence (looked up): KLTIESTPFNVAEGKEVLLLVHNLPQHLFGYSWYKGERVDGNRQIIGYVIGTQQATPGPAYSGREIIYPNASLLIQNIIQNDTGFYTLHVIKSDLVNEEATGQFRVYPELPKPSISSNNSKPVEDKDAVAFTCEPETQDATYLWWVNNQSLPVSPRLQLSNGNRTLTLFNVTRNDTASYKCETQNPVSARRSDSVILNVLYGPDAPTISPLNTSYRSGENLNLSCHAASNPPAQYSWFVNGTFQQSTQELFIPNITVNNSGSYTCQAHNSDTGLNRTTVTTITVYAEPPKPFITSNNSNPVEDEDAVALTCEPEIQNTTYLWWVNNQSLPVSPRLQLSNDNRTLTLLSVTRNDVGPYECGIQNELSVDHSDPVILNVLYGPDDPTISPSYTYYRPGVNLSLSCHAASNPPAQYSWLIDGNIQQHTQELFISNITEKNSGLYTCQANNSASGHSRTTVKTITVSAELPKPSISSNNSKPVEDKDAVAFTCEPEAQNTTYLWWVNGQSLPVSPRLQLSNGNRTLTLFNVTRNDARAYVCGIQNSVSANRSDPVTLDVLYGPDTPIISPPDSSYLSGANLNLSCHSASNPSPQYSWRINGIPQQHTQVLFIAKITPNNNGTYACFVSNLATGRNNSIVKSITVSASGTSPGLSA
Description: as §1

[4] = target: T3, human EpCAM-hFc (in-house production) (human, UniProt P16422 24-265, limits assumed)
T3 construct: not shown: human Fc
T3 sequence (looked up): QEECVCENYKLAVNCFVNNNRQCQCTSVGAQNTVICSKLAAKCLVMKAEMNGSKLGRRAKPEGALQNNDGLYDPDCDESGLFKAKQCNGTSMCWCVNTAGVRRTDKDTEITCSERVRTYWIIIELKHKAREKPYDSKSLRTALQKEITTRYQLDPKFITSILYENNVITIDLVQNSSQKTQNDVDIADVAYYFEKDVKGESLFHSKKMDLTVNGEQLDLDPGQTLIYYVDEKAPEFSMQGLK
Description: as §1

Measured: binding result

Sequence of human Thrombomodulin (Peprotech, 100-58) (P07204 19-515 limits assumed): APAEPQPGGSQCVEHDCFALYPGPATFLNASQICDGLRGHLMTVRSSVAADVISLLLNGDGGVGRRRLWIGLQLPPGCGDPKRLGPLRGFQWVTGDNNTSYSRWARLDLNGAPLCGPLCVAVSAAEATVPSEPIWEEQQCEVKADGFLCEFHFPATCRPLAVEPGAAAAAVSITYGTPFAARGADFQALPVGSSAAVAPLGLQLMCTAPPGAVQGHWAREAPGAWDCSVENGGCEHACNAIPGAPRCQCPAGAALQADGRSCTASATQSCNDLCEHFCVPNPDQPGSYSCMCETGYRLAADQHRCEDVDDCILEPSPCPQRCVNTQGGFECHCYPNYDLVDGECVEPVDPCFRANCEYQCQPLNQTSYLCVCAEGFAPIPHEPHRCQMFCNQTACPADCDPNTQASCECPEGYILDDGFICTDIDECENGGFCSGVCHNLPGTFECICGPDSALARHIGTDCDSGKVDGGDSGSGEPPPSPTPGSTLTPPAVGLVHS

B1: G1-AA/FS28-026 (antibody, human IgG1, kappa, L234A L235A, V domains shown)
VH: EVQLLESGGGLVQPGGSLRLSCAASGFTFSNYAMTWVRQAPGKGLEWVSSITPYYSKTDYADSVKGRFTISRDNSKNTLYLQMNSLRAEDTAVYYCARNWYRFDYWGQGTLVTVSS
VL: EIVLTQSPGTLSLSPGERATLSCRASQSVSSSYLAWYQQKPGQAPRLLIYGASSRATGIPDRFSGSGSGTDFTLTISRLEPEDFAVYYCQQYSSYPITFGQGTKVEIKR
notes: IgG1 LALA; also called FS28-026 mAb (in G1-AA format)
no binding (tested: 1000 nM): all assays above

B2: G1-AA/FS28-091 (antibody, human IgG1, kappa, L234A L235A, V domains shown)
VH: EVQLLESGGGLVQPGGSLRLSCAASGFTFTNYAMSWVRQAPGKGLEWVSSIKPYDGNTYYADSVKGRFTISRDNSKNTLYLQMNSLRAEDTAVYYCARNRWVFDYWGQGTLVTVSS
VL: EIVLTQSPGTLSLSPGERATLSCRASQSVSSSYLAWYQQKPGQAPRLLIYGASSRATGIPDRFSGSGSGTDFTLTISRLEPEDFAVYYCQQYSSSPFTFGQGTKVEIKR
notes: IgG1 LALA; also called FS28-091 mAb (in G1-AA format)
no binding (tested: 1000 nM): all assays above

B3: G1-AA/FS28-024 (antibody, human IgG1, kappa, L234A L235A, V domains shown)
VH: EVQLLESGGGLVQPGGSLRLSCAASGFTLSYSSMSWVRQAPGKGLEWVSFITPSTGYTHYADSVKGRFTISRDNSKNTLYLQMNSLRAEDTAVYYCARRALTFDYWGQGTLVTVSS
VL: EIVLTQSPGTLSLSPGERATLSCRASQSVSSSYLAWYQQKPGQAPRLLIYGASSRATGIPDRFSGSGSGTDFTLTISRLEPEDFAVYYCQQASSYPLTFGQGTKVEIKR
notes: Complete human IgG1 with LALA mutation; also called FS28-024 mAb (in G1-AA format)
no binding (tested: 1000 nM): all assays above
